Results reported in US20060199195A1 (CEDARS SINAI MEDICAL CENTER, published 2006).

T1: full-length schwannomin isoform 1 fused to the GAL4 binding domain (pGBT9NF2, residues 1-595) (Homo sapiens (Human), UniProt P35240 1-595)
T1 construct: Yeast two-hybrid bait; also called pGPT9NF2; GAL4-NF2
T1 sequence: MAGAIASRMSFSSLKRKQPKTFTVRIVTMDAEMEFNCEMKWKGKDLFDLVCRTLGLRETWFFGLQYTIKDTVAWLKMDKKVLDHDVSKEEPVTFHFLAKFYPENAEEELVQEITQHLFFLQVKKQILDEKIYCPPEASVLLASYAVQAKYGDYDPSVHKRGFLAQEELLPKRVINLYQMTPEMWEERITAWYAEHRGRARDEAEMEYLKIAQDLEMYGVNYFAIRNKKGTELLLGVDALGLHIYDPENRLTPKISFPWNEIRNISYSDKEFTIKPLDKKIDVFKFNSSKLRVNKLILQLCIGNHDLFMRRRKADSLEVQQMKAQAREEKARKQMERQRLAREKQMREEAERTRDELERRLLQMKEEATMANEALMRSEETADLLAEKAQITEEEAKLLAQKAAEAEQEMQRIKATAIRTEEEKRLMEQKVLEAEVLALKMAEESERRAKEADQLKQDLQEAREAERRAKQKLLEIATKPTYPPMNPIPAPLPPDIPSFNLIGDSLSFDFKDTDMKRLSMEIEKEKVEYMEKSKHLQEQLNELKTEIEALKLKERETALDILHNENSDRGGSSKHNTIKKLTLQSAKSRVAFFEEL

B1: MBP fused with β-spectrin residues 1885-1992 (other, UniProt Q01082 1885-1992, looked up, not shown: large carriers)
chain: RENEVLEAWKSLLDACESRRVRLVDTGDKFRFFSMVRDLMLWMEDVIRQIEAQEKPRDVSSVELLMNNHQGIKAEIDARNDSFTTCIELGKSLLARKHYASEEIKEKL
B2: MBP fused with β-spectrin residues 1885-1967 (other, UniProt Q01082 1885-1967, looked up, not shown: large carriers)
chain: RENEVLEAWKSLLDACESRRVRLVDTGDKFRFFSMVRDLMLWMEDVIRQIEAQEKPRDVSSVELLMNNHQGIKAEIDARNDSF
B3: CD44 (conserved cytoplasmic domain, last 70 residues) (other, UniProt P16070 673-742, looked up, not shown: large carriers)
chain: RRRCGQKKKLVINSGNGAVEDRKPSGLNGEASKSQEMVHLVNKESSETPDQFMTADETRNLQNVDMKIGV
notes: domain: conserved cytoplasmic domain, last 70 residues; Unrelated control protein in the two-hybrid filter assay
B4: glutathione-S-transferase fusion of the C-terminal domain of schwannomin isoform 1 (GSTNF2CL, schwannomin residues 469-595) (other)
chain: KQKLLEIATKPTYPPMNPIPAPLPPDIPSFNLIGDSLSFDFKDTDMKRLSMEIEKEKVEYMEKSKHLQEQLNELKTEIEALKLKERETALDILHNENSDRGGSSKHNTIKKLTLQSAKSRVAFFEEL
notes: Expressed in E. coli DH5α, purified on Sepharose 4B-glutathione; predicted 40.0 kDa; also called isoform 1 C-terminal domain GST fusion; not shown: Glutathione-S-transferase of pGEX-5X-1 and its linker
B5: GAL4 activation domain alone (pGADGH, no insert) (other, UniProt P04386 768-881, looked up)
chain: ANFNQSGNIADSSLSFTFTNSSNGPNLITTQTNSQALSQPIASSNVHDNFMNNEITASKIDDGNNSKPLSPGWTDQTAYNAFGITTGMFNTTTMDDVYNYLFDDEDTPPNPKKE
notes: Negative control

How the values were obtained:
[1] = molecular target: B4; experiment: pull-down on amylose resin, Western blot
Experimental: (§1) Purified MBP or MBP fusions were incubated with fresh amylose resin for 5 minutes at room temperature and 2.5 minutes at 4° C. in column buffer (20 mM Tris-HCl, pH 7.4, 200 mM NaCl, 1 mM EDTA, 2 μg/ml aprotinin, 0.5 mg/ml Perfabloc SC), and washed three times with binding buffer (160 mM NaCl, 2.5 mM MgCl₂, 1.5 mM CaCl₂, […], 50 mM hepes, pH 7.4, 1% Triton X-100, 2 μg/ml aprotinin, and 0.5 mg/ml Pefabloc SC). Saturated amylose resin was incubated with equivalent amounts of GSTNF2CL or GSTNF2I2CL for 20 min at 4° C. and washed three times with binding buffer. The quantities were normalized by conducting dot blots of serial dilutions detected with anti-GST antibody (Pharmacia). Western blot analysis was conducted as described using affinity purified rabbit anti-spectrin (Sigma S1515), and anti-schwannomin (Ab5990, recognizes C-terminal domain) polyclonal antibodies (Huynh and Pulst (1996)).
(§2) Glutathione-S-transferase (GST) fusions were purified with the C-terminal domain of schwannomin isoform 1 (GSTNF2CL, schwannomin residues 469-595) or isoform 2 (GSTNF2I2CI, schwannomin residues 469-590). When the MBPSp-amylose resin was incubated with schwannomin-GST fusion proteins, the proteins eluted from the washed resin were recognized by an anti-schwannomin antibody (Ab5990). […]

[2] = molecular target: T1, full-length schwannomin isoform 1 fused …; experiment: yeast two-hybrid, β-galactosidase filter assay
Source text: Double-transformant pGBT9NF2I2CL and pGAD10Sp is weakly positive for β-galactosidase in the filter assay; the trace blue color is not visible in the photo. Right: Histogram illustrating results of semiquantitative liquid assays for β-galactosidase activity (Poullet and Tamanio, Methods in Enzymol. 255:488-497 (1995)). Three controls are included: pGBT9NF1 and pGADGHRas, negative pGBT9NF2 and PGADGH, negative pGBT9 and pGAD105p. β-Galactosidase units=1000×[OD₄₂₀/(OD₆₀₀×times×culture volume)]. Bars show mean and standard deviation of three replicate clones from one transformation. Except for pGBT9NF2C and pGBT9NF2I2C, liquid assays for each construct were conducted at the same time, and for all constructs, the same clones were used in filter assays, and results were reproducible. FIG. 1(B) Control β-galactosidase filter assays of indicated double transformants showing high activity for a known positive interaction between NF1 and Ras (Poullet and Tamanio, (1995)), no detectable interaction between GAL4-NF2 and an unrelated protein, CD44 (conserved cytoplasmic domain, last 70 residues), and no detectable interaction between other negative controls. […]

[3] = molecular target: maltose binding protein (MBP) with no fusion protein (UniProt P0AEX9 27-392 = MBP); experiment: pull-down on amylose resin, Western blot with Ab5990
Experimental: as §1, §2

[4] = molecular target: T1, full-length schwannomin isoform 1 fused …; experiment: yeast two-hybrid, liquid β-galactosidase assay, control

B1: no binding [1].

B2: no binding [1].

B3: no binding [2].

B4: no binding [3].

B5: no binding [4].
